According to the supplement of paper PMC10724198:
± gives the standard deviation of the averaged measurements.

Tested on: Saccharomyces cerevisiae
Test: protein stability index of tFT-peptide fusion (C-terminal peptide) (PSI (0-1 scale)); higher = more stable (slower turnover)
Conditions: temperature: 30 C
Experimental: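 MPS profiling in S. cerevisiae of the yeast C-terminome library: the last 12 aa of each annotated ORF are fused to the C-terminus of a sfGFP-mCherry timer, after a GGGS linker. Cells are FACS-sorted into 8 mCherry/sfGFP bins and deep-sequenced. PSI runs from 0 (unstable) to 1 (stable); wild type and das1Δ backgrounds, two technical replicates each.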

[1] = genetic background: das1 deletion

## TPVIDFSLKLAH [BNA6 C-terminal 12 aa]
[1]
  protein stability index: 0.693 ± 0.017
Genetic background: wild type
  protein stability index: 0.7 ± 0.026

## KDETPEDNLEDK [VBA3 C-terminal 12 aa]
[1]
  protein stability index: 0.6896 ± 0.00088
Genetic background: wild type
  protein stability index: 0.653 ± 0.017

## ARTALKRLIDDQ [MSA1 C-terminal 12 aa]
[1]
  protein stability index: 0.692 ± 0.023
Genetic background: wild type
  protein stability index: 0.698 ± 0.025

## AGFGCLDSIILY [GSH2 C-terminal 12 aa]
[1]
  protein stability index: 0.7068 ± 0.0036
Genetic background: wild type
  protein stability index: 0.732 ± 0.038

## VACNPVAMADHQ [TUS1 C-terminal 12 aa]
[1]
  protein stability index: 0.71 ± 0.033
Genetic background: wild type
  protein stability index: 0.677 ± 0.019

## MGIRLRYNVEPK [RPA135 C-terminal 12 aa]
[1]
  protein stability index: 0.735 ± 0.041
Genetic background: wild type
  protein stability index: 0.663 ± 0.014

## AYTEVKAVRIKL [ALD6 C-terminal 12 aa]
[1]
  protein stability index: 0.6745 ± 0.0043
Genetic background: wild type
  protein stability index: 0.69 ± 0.02

## QIADDRPWCRME [YHC3 C-terminal 12 aa]
[1]
  protein stability index: 0.705 ± 0.01
Genetic background: wild type
  protein stability index: 0.6831 ± 0.0064

## TCEACGNRWKFS [DST1 C-terminal 12 aa]
[1]
  protein stability index: 0.7329 ± 0.0019
Genetic background: wild type
  protein stability index: 0.697 ± 0.013

## SDENIQPELRGQ [ABF1 C-terminal 12 aa]
[1]
  protein stability index: 0.675 ± 0.018
Genetic background: wild type
  protein stability index: 0.723 ± 0.047

## WNCFLSMRNASK [YOR292C C-terminal 12 aa]
[1]
  protein stability index: 0.693 ± 0.012
Genetic background: wild type
  protein stability index: 0.72 ± 0.028

## KNGKVDPLKNFK [DBP9 C-terminal 12 aa]
[1]
  protein stability index: 0.701 ± 0.015
Genetic background: wild type
  protein stability index: 0.684 ± 0.026

## RGSEHYTKRKKI [UBS1 C-terminal 12 aa]
[1]
  protein stability index: 0.687 ± 0.022
Genetic background: wild type
  protein stability index: 0.6822 ± 0.0035

## STVLINVCKPTY [BAR1 C-terminal 12 aa]
[1]
  protein stability index: 0.681 ± 0.013
Genetic background: wild type
  protein stability index: 0.667 ± 0.048

## PLTNNIRPISIM [YJR115W C-terminal 12 aa]
[1]
  protein stability index: 0.6893 ± 0.0007
Genetic background: wild type
  protein stability index: 0.6548 ± 0.005

## KPLSKPAPDLDY [CWC25 C-terminal 12 aa]
[1]
  protein stability index: 0.66 ± 0.024
Genetic background: wild type
  protein stability index: 0.676 ± 0.0075

## EDKDSESFSEVC [YCG1 C-terminal 12 aa]
[1]
  protein stability index: 0.702 ± 0.016
Genetic background: wild type
  protein stability index: 0.705 ± 0.011

## DAKFMMQASCSS [FMP40 C-terminal 12 aa]
[1]
  protein stability index: 0.6897 ± 0.0051
Genetic background: wild type
  protein stability index: 0.682 ± 0.035

## NLDNLFMASSLI [AIM6 C-terminal 12 aa]
[1]
  protein stability index: 0.7128 ± 0.0018
Genetic background: wild type
  protein stability index: 0.658 ± 0.033

## YTVLEDDANDEK [HAP1 C-terminal 12 aa]
[1]
  protein stability index: 0.673 ± 0.017
Genetic background: wild type
  protein stability index: 0.7 ± 0.027

## DPFDTNLSIKLS [YMR075C-A C-terminal 12 aa]
[1]
  protein stability index: 0.696 ± 0.026
Genetic background: wild type
  protein stability index: 0.6827 ± 0.0066

## KHQFLTKAKRFF [FET3 C-terminal 12 aa]
[1]
  protein stability index: 0.693 ± 0.0079
Genetic background: wild type
  protein stability index: 0.7186 ± 0.0014

## LLSVDGWRTDQL [QRI7 C-terminal 12 aa]
[1]
  protein stability index: 0.721 ± 0.014
Genetic background: wild type
  protein stability index: 0.758 ± 0.031

## INNTDITLYNDV [YPL068C C-terminal 12 aa]
[1]
  protein stability index: 0.707 ± 0.019
Genetic background: wild type
  protein stability index: 0.696 ± 0.056

## NEKGNDDSDAKK [ILM1 C-terminal 12 aa]
[1]
  protein stability index: 0.695 ± 0.041
Genetic background: wild type
  protein stability index: 0.685 ± 0.029

## IKETIQRLTDDR [GMC2 C-terminal 12 aa]
[1]
  protein stability index: 0.661 ± 0.018
Genetic background: wild type
  protein stability index: 0.676 ± 0.015

## LPSERSRLSYTN [CBP3 C-terminal 12 aa]
[1]
  protein stability index: 0.703 ± 0.026
Genetic background: wild type
  protein stability index: 0.696 ± 0.071

## RQNDKGAIKKSK [YEA4 C-terminal 12 aa]
[1]
  protein stability index: 0.676 ± 0.019
Genetic background: wild type
  protein stability index: 0.719 ± 0.049

## FVDDNTPLEHVC [YDL086W C-terminal 12 aa]
[1]
  protein stability index: 0.706 ± 0.011
Genetic background: wild type
  protein stability index: 0.7331 ± 0.0011

## IHENEESNENEG [RQC1 C-terminal 12 aa]
[1]
  protein stability index: 0.702 ± 0.0099
Genetic background: wild type
  protein stability index: 0.663 ± 0.011

## DDEDEEDDDFKE [CHZ1 C-terminal 12 aa]
[1]
  protein stability index: 0.725 ± 0.021
Genetic background: wild type
  protein stability index: 0.671 ± 0.017

## FLPINVNDVPST [RGD3 C-terminal 12 aa]
[1]
  protein stability index: 0.716 ± 0.0089
Genetic background: wild type
  protein stability index: 0.708 ± 0.069

## KEANPIKITPQP [MDL2 C-terminal 12 aa]
[1]
  protein stability index: 0.682 ± 0.009
Genetic background: wild type
  protein stability index: 0.708 ± 0.0083

## KSAKATKASQEL [HTA1 C-terminal 12 aa]
[1]
  protein stability index: 0.691 ± 0.011
Genetic background: wild type
  protein stability index: 0.675 ± 0.045

## VSMKAIFSCMYV [YMR272W-B C-terminal 12 aa]
[1]
  protein stability index: 0.6576 ± 0.0051
Genetic background: wild type
  protein stability index: 0.655 ± 0.034

## VEIFVDKLIDFL [THI80 C-terminal 12 aa]
[1]
  protein stability index: 0.674 ± 0.014
Genetic background: wild type
  protein stability index: 0.656 ± 0.027

## YHKLVDEVFQHL [MPA43 C-terminal 12 aa]
[1]
  protein stability index: 0.71092 ± 0.00027
Genetic background: wild type
  protein stability index: 0.688 ± 0.016

## GVSFHVQVTMPQ [TRS33 C-terminal 12 aa]
[1]
  protein stability index: 0.711 ± 0.023
Genetic background: wild type
  protein stability index: 0.704 ± 0.049

## VLLIRSDKKKKV [YIL102C-A C-terminal 12 aa]
[1]
  protein stability index: 0.71 ± 0.024
Genetic background: wild type
  protein stability index: 0.696 ± 0.035

## SVSYASGYVTIG [MHO1 C-terminal 12 aa]
[1]
  protein stability index: 0.705 ± 0.034
Genetic background: wild type
  protein stability index: 0.64 ± 0.011

## EQGGEGVQCASQ [YDJ1 C-terminal 12 aa]
[1]
  protein stability index: 0.686 ± 0.014
Genetic background: wild type
  protein stability index: 0.69 ± 0.045
